Test [1] has as its target T1, rat PrRP receptor in RC-4B/C cells (rat, UniProt Q64121 1-370).
T1 construct: whole, on cells; endogenous receptor of RC-4B/C cells (ATCC); also called rat receptor; GPR10 receptor expressed in rat hypophyseal cells
T1 sequence (looked up): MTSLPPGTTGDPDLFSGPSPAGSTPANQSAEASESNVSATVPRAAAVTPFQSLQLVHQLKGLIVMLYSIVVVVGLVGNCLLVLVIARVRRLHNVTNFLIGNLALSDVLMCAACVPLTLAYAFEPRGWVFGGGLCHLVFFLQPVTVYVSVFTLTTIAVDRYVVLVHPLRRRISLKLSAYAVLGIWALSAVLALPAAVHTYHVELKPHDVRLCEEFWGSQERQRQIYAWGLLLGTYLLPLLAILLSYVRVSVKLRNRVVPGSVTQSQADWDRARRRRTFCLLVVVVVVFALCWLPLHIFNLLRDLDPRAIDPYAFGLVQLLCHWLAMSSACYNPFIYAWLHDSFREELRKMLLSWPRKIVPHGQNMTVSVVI
Kind of test: competition with 125I-rat PrRP31, RC-4B/C cells. The method, then:
The rat pituitary cell line RC-4B/C (ATCC, Manassas, USA) was grown on 24-well plates which had their bottom coated with polyethyleneimine. The cells were grown to the optimal density of 300-450 thousand cells per well.
(§1) Plates were incubated for 60 minutes at room temperature. After incubation, the cells were solubilized in 0.1 mol/l solution of NaOH, and the radioactivity bound to the cells was counted using a γ-counter. The experiments were performed in duplicate, and repeated at least three times.

For test [2], the target named is T2, human PrRP receptor GPR10 (human, UniProt P49683 1-370).
T2 construct: whole, on cells; also called GPR10 human receptor transfected in CHO cells; human GPR10 receptor
T2 sequence (looked up): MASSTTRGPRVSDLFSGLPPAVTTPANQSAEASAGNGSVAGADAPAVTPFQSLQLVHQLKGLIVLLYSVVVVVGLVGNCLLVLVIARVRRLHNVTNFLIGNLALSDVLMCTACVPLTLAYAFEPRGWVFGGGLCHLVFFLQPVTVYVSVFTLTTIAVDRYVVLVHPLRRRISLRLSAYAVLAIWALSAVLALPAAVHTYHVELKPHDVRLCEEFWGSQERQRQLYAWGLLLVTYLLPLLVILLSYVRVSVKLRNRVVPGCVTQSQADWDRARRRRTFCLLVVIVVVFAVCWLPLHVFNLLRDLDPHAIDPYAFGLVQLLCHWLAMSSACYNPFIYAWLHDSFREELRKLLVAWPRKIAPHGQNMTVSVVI
Kind of test: competition with 125I-human PrRP31, CHO cells with human GPR10. The method, then:
CHO cells transfected with human PrRP receptor GPR10 (Perkin Elmer, USA) were grown on 24-well plates coated with polyethyleneimine. […] The following agents were used for the experiment: binding buffer (25 mmol.1⁻¹ Tris, pH 7.4; 118 mmol.1⁻¹ NaCl, 10 mmol.1⁻¹ MgCl₂, 1 mmol.1⁻¹ CaCl₂, 5.5 mmol.1⁻¹ glucose, 0.5 mg/ml BSA), unlabeled analogs of PrRP (i.e. the analog being tested) at a final concentration between 10⁻¹¹ to 10⁻⁴ mol.1⁻¹, and radiolabeled human ¹²⁵1-PrRP31 at a final concentration of 5×10⁻¹¹ mol.1⁻¹.
as §1

Ten molecules from patent US20150196651A1 (published 2015) can be followed below.

Square brackets hold non-standard residues; d marks the D form. Ends that are not written are not given here. * marks the point of attachment. Phe(F5) = N[C@@H](Cc1c(F)c(F)c(F)c(F)c1F)C(=O)O; Palmitoyl = CCCCCCCCCCCCCCCC(=O)*; Myristoyl = CCCCCCCCCCCCCC(=O)*; Nle = CCCC[C@H](N)C(=O)O; Sar = CNCC(=O)O

B1: analog no. 25 (peptide)
peptide: [dF][dR]GVPRIGRGTYWAPNIDPT-NH2
modifications: N-terminus assumed
SMILES: CC[C@H](C)[C@H](NC(=O)[C@H](CCCNC(=N)N)NC(=O)[C@@H]1CCCN1C(=O)[C@@H](NC(=O)CNC(=O)[C@@H](CCCNC(=N)N)NC(=O)[C@H](N)Cc1ccccc1)C(C)C)C(=O)NCC(=O)N[C@@H](CCCNC(=N)N)C(=O)NCC(=O)N[C@H](C(=O)N[C@@H](Cc1ccc(O)cc1)C(=O)N[C@@H](Cc1c[nH]c2ccccc12)C(=O)N[C@@H](C)C(=O)N1CCC[C@H]1C(=O)N[C@@H](CC(N)=O)C(=O)N[C@H](C(=O)N[C@@H](CC(=O)O)C(=O)N1CCC[C@H]1C(=O)N[C@H](C(N)=O)[C@@H](C)O)[C@@H](C)CC)[C@@H](C)O
notes: scrambled peptide; also called 25 scram
B1: in test [1], the “% of PrRP31” value worked out at 0.09% and the Ki worked out at 5200 nM. Besides, in test [2], the “% of PrRP31” value is 0.06% and the affinity corresponds to a Ki of 6290 nM.

B2: analog no. 27 (peptide)
peptide: TPDINPAWYTGR[Sar]IRPVGRF-NH2
modifications: N-terminus assumed
SMILES: CC[C@H](C)[C@H](NC(=O)CN(C)C(=O)[C@H](CCCNC(=N)N)NC(=O)CNC(=O)[C@@H](NC(=O)[C@H](Cc1ccc(O)cc1)NC(=O)[C@H](Cc1c[nH]c2ccccc12)NC(=O)[C@H](C)NC(=O)[C@@H]1CCCN1C(=O)[C@H](CC(N)=O)NC(=O)[C@@H](NC(=O)[C@H](CC(=O)O)NC(=O)[C@@H]1CCCN1C(=O)[C@@H](N)[C@@H](C)O)[C@@H](C)CC)[C@@H](C)O)C(=O)N[C@@H](CCCNC(=N)N)C(=O)N1CCC[C@H]1C(=O)N[C@H](C(=O)NCC(=O)N[C@@H](CCCNC(=N)N)C(=O)N[C@@H](Cc1ccccc1)C(N)=O)C(C)C
With B2, the “% of PrRP31” value in test [1] was 62%; in test [2] it was 86%. The Ki in test [1] worked out at 7.94 nM; in test [2] it was 4.51 nM.
For SRAHQHS[Nle]ETRTPDINPAWYTGRGIRPVGRF-NH2 [analog no. 3], in that order: 385%, 203%, 1.28 nM and 1.92 nM.

B3: analog no. 23 (peptide)
peptide: SRAHQHS[Nle]ETRTPDINPAWYTGRGIRPVGRY-NH2
modifications: N-terminus assumed
SMILES: CCCC[C@H](NC(=O)[C@H](CO)NC(=O)[C@H](Cc1c[nH]cn1)NC(=O)[C@H](CCC(N)=O)NC(=O)[C@H](Cc1c[nH]cn1)NC(=O)[C@H](C)NC(=O)[C@H](CCCNC(=N)N)NC(=O)[C@@H](N)CO)C(=O)N[C@@H](CCC(=O)O)C(=O)N[C@H](C(=O)N[C@@H](CCCNC(=N)N)C(=O)N[C@H](C(=O)N1CCC[C@H]1C(=O)N[C@@H](CC(=O)O)C(=O)N[C@H](C(=O)N[C@@H](CC(N)=O)C(=O)N1CCC[C@H]1C(=O)N[C@@H](C)C(=O)N[C@@H](Cc1c[nH]c2ccccc12)C(=O)N[C@@H](Cc1ccc(O)cc1)C(=O)N[C@H](C(=O)NCC(=O)N[C@@H](CCCNC(=N)N)C(=O)NCC(=O)N[C@H](C(=O)N[C@@H](CCCNC(=N)N)C(=O)N1CCC[C@H]1C(=O)N[C@H](C(=O)NCC(=O)N[C@@H](CCCNC(=N)N)C(=O)N[C@@H](Cc1ccc(O)cc1)C(N)=O)C(C)C)[C@@H](C)CC)[C@@H](C)O)[C@@H](C)CC)[C@@H](C)O)[C@@H](C)O
On to B3, for which the “% of PrRP31” value in test [1] was found to be 152%; in test [2], 193%. The values for the Ki in test [1] and in test [2] were 3.25 nM and 2.02 nM, respectively.

B4: analog no. 24 (peptide)
peptide: Palmitoyl-SRAHQHS[Nle]ETRTPDINPAWYTGRGIRPVGRY-NH2
SMILES: CCCCCCCCCCCCCCCC(=O)N[C@@H](CO)C(=O)N[C@@H](CCCNC(=N)N)C(=O)N[C@@H](C)C(=O)N[C@@H](Cc1c[nH]cn1)C(=O)N[C@@H](CCC(N)=O)C(=O)N[C@@H](Cc1c[nH]cn1)C(=O)N[C@@H](CO)C(=O)N[C@@H](CCCC)C(=O)N[C@@H](CCC(=O)O)C(=O)N[C@H](C(=O)N[C@@H](CCCNC(=N)N)C(=O)N[C@H](C(=O)N1CCC[C@H]1C(=O)N[C@@H](CC(=O)O)C(=O)N[C@H](C(=O)N[C@@H](CC(N)=O)C(=O)N1CCC[C@H]1C(=O)N[C@@H](C)C(=O)N[C@@H](Cc1c[nH]c2ccccc12)C(=O)N[C@@H](Cc1ccc(O)cc1)C(=O)N[C@H](C(=O)NCC(=O)N[C@@H](CCCNC(=N)N)C(=O)NCC(=O)N[C@H](C(=O)N[C@@H](CCCNC(=N)N)C(=O)N1CCC[C@H]1C(=O)N[C@H](C(=O)NCC(=O)N[C@@H](CCCNC(=N)N)C(=O)N[C@@H](Cc1ccc(O)cc1)C(N)=O)C(C)C)[C@@H](C)CC)[C@@H](C)O)[C@@H](C)CC)[C@@H](C)O)[C@@H](C)O
With B4, in test [1], the “% of PrRP31” value worked out at 1120% and the affinity corresponds to a Ki of 0.44 nM. Besides, in test [2], the “% of PrRP31” value turned out to be 248% and the Ki came to 1.57 nM.
The matching figures for Palmitoyl-SRAHQHS[Nle]ETRTPDINPAWYTGRGIRPVGR[Phe(F5)]-NH2 [analog no. 22]: 966%, 0.51 nM, 203% and 1.92 nM.

B5: analog no. 51 (peptide)
peptide: SRTHRHSMEIRTPDINPK(Palmitoyl)WYASRGIRPVGRF-NH2
modifications: N-terminus assumed
SMILES: CCCCCCCCCCCCCCCC(=O)NCCCC[C@H](NC(=O)[C@@H]1CCCN1C(=O)[C@H](CC(N)=O)NC(=O)[C@@H](NC(=O)[C@H](CC(=O)O)NC(=O)[C@@H]1CCCN1C(=O)[C@@H](NC(=O)[C@H](CCCNC(=N)N)NC(=O)[C@@H](NC(=O)[C@H](CCC(=O)O)NC(=O)[C@H](CCSC)NC(=O)[C@H](CO)NC(=O)[C@H](Cc1c[nH]cn1)NC(=O)[C@H](CCCNC(=N)N)NC(=O)[C@H](Cc1c[nH]cn1)NC(=O)[C@@H](NC(=O)[C@H](CCCNC(=N)N)NC(=O)[C@@H](N)CO)[C@@H](C)O)[C@@H](C)CC)[C@@H](C)O)[C@@H](C)CC)C(=O)N[C@@H](Cc1c[nH]c2ccccc12)C(=O)N[C@@H](Cc1ccc(O)cc1)C(=O)N[C@@H](C)C(=O)N[C@@H](CO)C(=O)N[C@@H](CCCNC(=N)N)C(=O)NCC(=O)N[C@H](C(=O)N[C@@H](CCCNC(=N)N)C(=O)N1CCC[C@H]1C(=O)N[C@H](C(=O)NCC(=O)N[C@@H](CCCNC(=N)N)C(=O)N[C@@H](Cc1ccccc1)C(N)=O)C(C)C)[C@@H](C)CC
For the molecule B5, in test [2], the “% of PrRP31” value was 54% and the Ki was 7.24 nM.
Take SRAHQHS[Nle]ETRTPDINPAWYTGRGIRPVGR[Phe(F5)]-NH2 [analog no. 21]: the “% of PrRP31” value in test [1] was determined as 51%; in test [2], 45%. In addition, the Ki in test [1] was found to be 9.69 nM; in test [2], 8.59 nM.

B6: analog no. 28 (peptide)
peptide: Myristoyl-TPDINPAWYTGR[Sar]IRPVGRF-NH2
SMILES: CCCCCCCCCCCCCC(=O)N[C@H](C(=O)N1CCC[C@H]1C(=O)N[C@@H](CC(=O)O)C(=O)N[C@H](C(=O)N[C@@H](CC(N)=O)C(=O)N1CCC[C@H]1C(=O)N[C@@H](C)C(=O)N[C@@H](Cc1c[nH]c2ccccc12)C(=O)N[C@@H](Cc1ccc(O)cc1)C(=O)N[C@H](C(=O)NCC(=O)N[C@@H](CCCNC(=N)N)C(=O)N(C)CC(=O)N[C@H](C(=O)N[C@@H](CCCNC(=N)N)C(=O)N1CCC[C@H]1C(=O)N[C@H](C(=O)NCC(=O)N[C@@H](CCCNC(=N)N)C(=O)N[C@@H](Cc1ccccc1)C(N)=O)C(C)C)[C@@H](C)CC)[C@@H](C)O)[C@@H](C)CC)[C@@H](C)O
For B6, the “% of PrRP31” value in test [1] stood at 1540%; in test [2], 125%. Also, the Ki in test [1] came to 0.32 nM; in test [2], 3.12 nM.
For SRAHQHSMETRTPDINPAWYTGRGIRPVGRF-NH2 (synthetic peptide) [Rat PrRP31], in that order: 100%, 100%, 4.93 nM and 3.89 nM.

The term Ki denotes the equilibrium dissociation constant of an inhibitor or competing ligand from its target.
